Biological target: human glypican-3 (GPC3) on the cell surface (human), P51654
Assay: cell-based or functional assay

B1: CAR.hYP7 (GPC3-targeted chimeric antigen receptor with humanized YP7 scFv, CD8α hinge and TM, 4-1BB, CD3ζ) (protein)
chain: HMEVQLVESGGGLVQPGGSLRLSCAASGFTFNKNAMNWVRQAPGKGLEWVGRIRNKTNNYATYYADSVKARFTISRDDSKNSLYLQMNSLKTEDTAVYYCVAGNSFAYWGQGTLVTVSAGGGGSGGGGSGGGGSDIVMTQSPDSLAVSLGERATINCKSSQSLLYSSNQKNYLAWYQQKPGQPPKLLIYWASSRESGVPDRFSGSGSGTDFTLTISSLQAEDVAVYYCQQYYNYPLTFGQGTKLEIKTSTTTPAPRPPTPAPTIASQPLSLRPEACRPAAGGAVHTRGLDFACDIYIWAPLAGTCGVLLLSLVITKRGRKKLLYIFKQPFMRPVQTTQEEDGCSCRFPEEEEGGCELRVKFSRSADAPAYQQGQNQLYNELNLGRREEYDVLDKRRGRDPEMGGKPRRKNPQEGLYNELQKDKMAEAYSEIGMKGERRRGKGHDGLYQGLSTATKDTYDALHMQALPPR
In the case of B1, the lytic activity against Hep3B cells at E:T ratio of 5 (HCC patient-derived T cells) is reported as 30 to 70%, the lytic activity against Hep3B cells at E:T ratio of 5 (HCC patient-derived T cells), average is reported as 50% and the lytic activity against Hep3B cells at E:T ratio of 5 (healthy donor-derived T cells), average is reported as 90%.

From US20210371542A1
